# Test results from PMC5740060.
# Assays:
# [1] = molecular target: L2-OVX313 (human papillomavirus type 16) (UniProt P03107); test: non-reducing SDS-PAGE; heparin-purified antigen electrophoresed without β-mercaptoethanol (disulfide-linked oligomer kept); reduced sample beside it runs as the monomer
# [2] = molecular target: L2-OVX313 (human papillomavirus type 16) (UniProt P03107); test: SEC; Superdex 200 HR10/30, 25 mM Tris-HCl (pH 7.5), 150 mM NaCl, 0.7 ml/min; heparin-purified antigen; calibrated with molecular mass standards
# [3] = molecular target: PfTrx-L2-OVX313 (Pyrococcus furiosus | human papillomavirus type 16) (UniProt P03107); test: non-reducing SDS-PAGE; heparin-purified antigen electrophoresed without β-mercaptoethanol (disulfide-linked oligomer kept); reduced sample beside it runs as the monomer
# [4] = molecular target: PfTrx-L2-OVX313 (Pyrococcus furiosus | human papillomavirus type 16) (UniProt P03107); test: SEC; Superdex 200 HR10/30, 25 mM Tris-HCl (pH 7.5), 150 mM NaCl, 0.7 ml/min; heparin-purified antigen; calibrated with molecular mass standards
# [5] = molecular target: PfTrx-L2(8x)-OVX313 (Pyrococcus furiosus); test: non-reducing SDS-PAGE; heparin-purified antigen electrophoresed without β-mercaptoethanol (disulfide-linked oligomer kept); reduced sample beside it runs as the monomer
# [6] = molecular target: PfTrx-L2(8x)-OVX313 (Pyrococcus furiosus); test: SEC; Superdex 200 HR10/30, 25 mM Tris-HCl (pH 7.5), 150 mM NaCl, 0.7 ml/min; heparin-purified antigen; calibrated with molecular mass standards
substance,measurement,setting,value
L2-OVX313 (from UniProt P03107 20-38; P03107 20-38; P03107 20-38),stoichiometry N,[1],7
same,stoichiometry N,[2],7
PfTrx-L2-OVX313 (from UniProt P03107 20-38; P03107 20-38; P03107 20-38),stoichiometry N,[3],7
same,stoichiometry N,[4],7
PfTrx-L2(8x)-OVX313,stoichiometry N,[5],7
same,stoichiometry N,[6],7
